This note sets out measurements from US20220204603A1 (PHARMABCINE, published 2022).

T1: human Ang2 (construct not stated) (human, UniProt O15123 19-496, limits assumed)
T1 construct: also called hAng2
T1 sequence (looked up): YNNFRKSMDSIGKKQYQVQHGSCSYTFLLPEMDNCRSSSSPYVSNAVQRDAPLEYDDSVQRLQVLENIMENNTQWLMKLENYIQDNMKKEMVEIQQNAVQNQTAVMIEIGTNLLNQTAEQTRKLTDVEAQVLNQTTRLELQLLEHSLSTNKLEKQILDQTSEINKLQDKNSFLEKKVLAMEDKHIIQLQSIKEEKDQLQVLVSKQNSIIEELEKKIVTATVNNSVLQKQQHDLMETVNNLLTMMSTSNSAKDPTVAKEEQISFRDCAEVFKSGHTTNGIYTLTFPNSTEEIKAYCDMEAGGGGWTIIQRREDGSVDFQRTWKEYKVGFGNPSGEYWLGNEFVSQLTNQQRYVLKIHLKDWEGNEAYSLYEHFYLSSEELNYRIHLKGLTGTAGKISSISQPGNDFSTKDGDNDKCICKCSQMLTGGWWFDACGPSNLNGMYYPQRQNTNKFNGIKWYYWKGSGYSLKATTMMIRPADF

T2: mouse Ang2 (construct not stated) (mouse, UniProt O35608 19-496, limits assumed)
T2 construct: also called mAng2
T2 sequence (looked up): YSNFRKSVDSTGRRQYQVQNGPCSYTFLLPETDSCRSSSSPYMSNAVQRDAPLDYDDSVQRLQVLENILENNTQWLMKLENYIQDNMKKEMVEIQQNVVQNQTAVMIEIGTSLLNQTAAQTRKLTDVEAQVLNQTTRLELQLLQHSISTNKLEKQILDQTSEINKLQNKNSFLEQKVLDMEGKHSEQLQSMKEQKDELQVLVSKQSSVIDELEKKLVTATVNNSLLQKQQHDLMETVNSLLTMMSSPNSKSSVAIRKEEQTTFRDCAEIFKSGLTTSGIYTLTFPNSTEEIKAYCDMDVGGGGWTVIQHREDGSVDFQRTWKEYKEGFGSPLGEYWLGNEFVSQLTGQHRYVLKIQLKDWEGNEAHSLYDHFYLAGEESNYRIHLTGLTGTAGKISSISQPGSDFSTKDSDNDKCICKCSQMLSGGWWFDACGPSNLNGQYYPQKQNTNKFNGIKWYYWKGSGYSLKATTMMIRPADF

T3: biotinylated human Ang2 protein (human, UniProt O15123 19-496, limits assumed, biotinylated (sites not given))
T3 construct: also called hAng2
T3 sequence (looked up): T1 sequence (looked up)

B1: No. 41 anti-Ang2 antibody (IgG) (antibody, V domains shown)
VH: QVQLVESGGGLVQPGGSLRLSCEASGFAFGRYEMNWVRQAPGKGLEWIAYIDTGGGAKVYADSVKGRFTISRDDSKNSLYLQMNSLRAEDTAVYYCTTEGLMNGLHFDMWGQGTMITVSS
VL: DIQMTQSPSTLSASVGDRVAITCRASQAISTWLAWYQQKPGKAPKLLIYTASTLESGVPSRFSGSGSGTDFTLTINSLQPDDFATYYCQQLNSYPYTFGGGTKVEIKR
notes: IgG form: VH cloned into Invivogen pfusess-hchg1, VL into Invivogen pfuse2ss-hclk; also called 2B2
B2: No. 4 anti-Ang2 antibody (IgG) (antibody, V domains shown)
VH: QVQLVESGAEVKRPGESLRISCKTSGYSFTSYWIHWVRQMPGKELEWMGSIYPGNSDTRYSPSFQGHVTISADSSSSTAYLQWSSLKASDTAMYYCTTEGLMNGLHFDMWGQGTMVTVSS
VL: DIVMTQTPLSLPVTPGEPASISCRSSQSLLHSLGDNYLDWYLQKPGQSPQLLIYLGSKRAAGVPDRFSGSGSGTDFTLKISRVEAEDVGVYYCMQSLQTPPYTFGQGTKLEIKR
notes: IgG form: VH cloned into Invivogen pfusess-hchg1, VL into Invivogen pfuse2ss-hclk; also called 2D8
B3: No. 46 anti-Ang2 antibody (IgG) (antibody, V domains shown)
VH: QVQLVESGGGLVQPGRSLRLSCAASGFTFDDCAMHWVRQAPGKGLEWVSGISGNSKNVAYADSVKGRFSISRDDAKNSLYLQMNSLRAEDTAVYYCARDPAYSQFDYWGQGTLITVSS
VL: QSALTQPPSLSATPGQRVTISCSGSSSNVGGYPVNWYQQVPGAAPKLLMYTDYKRPSGVPDRFFGSKSGTSASLAISGLQSEDEADYYCATWDDNLNGYVFGTGTKVTVLG
notes: IgG form: VH cloned into Invivogen pfusess-hchg1, VL into Invivogen pfuse2ss-hclk; also called 3C6
B4: No. 3 anti-Ang2 antibody (IgG) (antibody, V domains shown)
VH: QMQLVQSGGGLVQPGRSLKLSCAASGFSFDDYAMHWVRQAPGKGLEWVATIKDDGSQTYYVDSVKGRFTISRDNAKSSLFLQMNSLRAEDTAVYYCTTEGLMNGLHFDMWGQGTMVTVSS
VL: LVLTQPPSVSGAPGQGVTISCTGSSSNIGAGYDVHWYQQFPGTAPKLLISGNNNRPSGLPDRFSGSKSGTSASLAITGLQAEDEADYYCQSYDSRLGVVFGGGTKLTVLG
notes: IgG form: VH cloned into Invivogen pfusess-hchg1 (heavy chain constant region), VL into Invivogen pfuse2ss-hclk (light chain constant region); Expressed in Expi293F, purified on Protein A; also called 1D10
B5: No. 8 anti-Ang2 antibody (IgG) (antibody, V domains shown)
VH: QVQLVESGGGLVKPGGSLRLSCAASGFTFSSYSMNWVRQAPGKGLEWVSSISASDGATYYADSVRGRFTISRDNSRSTLYLQMNSLRAEDTAVYYCAKILAGYSGPMGGMDVWGQGTTVTVSS
VL: DIQMTQSPSSLSASVGDRVTITCRASRDISNYLAWYQQKPGKAPKSLIYGASNLQSGVSSQFSGSGSGTDFTLTINSLQPEDSATYYCQQYYSYPLTFGGGTKVDIKR
notes: IgG form: VH cloned into Invivogen pfusess-hchg1, VL into Invivogen pfuse2ss-hclk; also called 3A10

The first test concerns the target T1, human Ang2 (construct not stated). Kind of test: SPR Biacore T200, antibody captured on protein A chip, Ang2 as analyte, 1:1 model. Here is the method:
(§1) To analyze the binding affinity of the selected anti-Ang2 antibodies, affinity analysis for human Ang2 and mouse Ang2 was performed using BIACORE® T200 (GE Healthcare). A protein A sensor chip was used, and an experiment was conducted in accordance with the manufacturer's manual. Detailed analysis conditions are as follows. 2000 response units (RU) of protein A were immobilized, 25 RU of anti-Ang2 antibody candidates were used for binding, and various concentrations of human Ang2 and mouse Ang2 were allowed to bind. The starting concentrations for analysis are 100 nM and 150 nM, respectively. The analysis proceeded at a flow rate of 30 μl/min, the binding and dissociation time of human Ang2 was measured as 300 seconds and 2000 seconds, respectively, and the binding and dissociation time of mouse Ang2 was analyzed as 300 seconds and 1000 seconds, respectively. Analysis was performed using a 1:1 binding model as an analytical model.
On the technique in general: SPR reads the build-up and loss of mass on a sensor chip optically.
In general, Kd refers to the constant that tells how readily two partners part at equilibrium. A high value points to lower affinity. The koff is a measure of how fast the partners let go of each other. In general, kon refers to the second-order rate constant of association. For the molecule B1, binding was characterised by a dissociation constant (Kd) of 0.243 nM, the dissociation rate constant (koff) amounted to 7.77e-05 s⁻¹ and the kon came to 320000 M⁻¹ s⁻¹.
On the same counts, the results for B2 are 0.217 nM, 5.93e-05 s⁻¹ and 273000 M⁻¹ s⁻¹.
B3: binding was put at a Kd of 0.314 nM, the koff turned out to be 8.62e-05 s⁻¹ and the kon worked out at 274000 M⁻¹ s⁻¹.
On the same counts, the results for B4 are 0.127 nM, 4.22e-05 s⁻¹ and 334000 M⁻¹ s⁻¹.
The corresponding values for B5 are 0.163 nM, 4.37e-05 s⁻¹ and 268000 M⁻¹ s⁻¹.

A further test concerns the target T2, mouse Ang2 (construct not stated). Described as above. Here is the method:
as §1
B1 had a Kd of 0.328 nM, a koff of 9.47e-05 s⁻¹ and a kon of 289000 M⁻¹ s⁻¹.
On the same counts, the results for B2 are 0.45 nM, 7.05e-05 s⁻¹ and 157000 M⁻¹ s⁻¹.
On the same counts, the results for B3 are 0.193 nM, 8.94e-05 s⁻¹ and 465000 M⁻¹ s⁻¹.
With B4, the equilibrium dissociation constant (Kd) stood at 0.538 nM, the koff is 8.53e-05 s⁻¹ and the kon stood at 158000 M⁻¹ s⁻¹.
On the same counts, the results for B5 are 0.463 nM, 6.69e-05 s⁻¹ and 144000 M⁻¹ s⁻¹.

The target is the same in the next test. Kind of test: competition ELISA: antibody preincubated with mAng2, binding to coated mouse Tie2-Fc.
For orientation: IC50 means the midpoint of a concentration-inhibition curve. Molecule B1 displayed an IC50 of 3.98 nM.
Same read-out and setting: the result for B2 reads 4.54 nM.
B3 gave an IC50 of 5.25 nM.
Same read-out and setting: under B4 stands 5.02 nM; under B5, 4.83 nM.

The target of another test is T3, biotinylated human Ang2 protein. Kind of test: competition ELISA: antibody preincubated with biotinylated hAng2, binding to coated human Tie2-Fc. Here is the method:
(§2) 1 μg/ml (100 μl per well) of a human Ti32-Fc (R&D Systems, 313-TI) or mouse Tie2-Fc (R&D Systems, 762-T2-100) solution, an integrin α3/β1 solution (R&D systems, 2840-A3-050), or an integrin α5/β1 solution (R&D systems, 3230-A5-050) was added to a 96-well immunoplate (Nunc, US) and then allowed to stand overnight at 4° C. for adsorption. The next day, the plate was washed four times with PBS containing 0.05% Tween-20 (hereinafter, referred to as PBST), and 200 μl of a 2% BSA/PBST solution was added to each well and then allowed to stand at room temperature for 1 hour to perform blocking. Anti-Ang2 candidate antibodies were serially diluted 4-fold at a maximum of 1000 nM, and biotinylated human Ang2 protein was made to a final concentration of 100 ng/mL or 625 ng/mL, followed by previous binding at room temperature for 1 hour. […] The plate was washed three times with PBST, 100 μl of HRP-conjugated streptavidin (R&D Systems, DY998) diluted to 1:200 was added to allow a reaction to occur at room temperature for 1 hour, thereby inducing binding, and the plate was washed four times with PBST, followed by color development using 100 μl of a TMB substrate reagent. The color development reaction was stopped by adding 50 μl of 2N H₂SO₄, and a Sunrise microplate reader (TECAN, CH) was used to measure specific absorbance OD₄₅₀ (FIGS. 4 and 5).
A general note: In an ELISA, binding on a coated surface is turned into a signal by an enzyme label.
B1: the IC50 turned out to be 0.475 nM.
The same measure, in the same setting: the result for B2 reads 0.462 nM; that for B3, 0.337 nM.
Same read-out and setting: under B4 stands 0.491 nM; under B5, 0.495 nM.

For another test the target is unchanged. Nature of the test: competition ELISA: antibody preincubated with biotinylated hAng2, binding to coated integrin α3/β1. Here is the method:
as §2
On to B1, for which the IC50 worked out at 2.43 nM.
Same read-out and setting: under B2 stands 2.42 nM; under B3, 4.39 nM.
The same measure, in the same setting: under B4 stands 2.5 nM; under B5, 4.68 nM.
